# Experimental data: US20200147244A1
# How the values were obtained:
# [1] = molecular target: recombinant PSMA protein (human) (UniProt Q04609); test: ELISA on PSMA
# [2] = molecular target: His-PSMA (Sino Biological) (human) (UniProt Q04609); test: ELISA, PSMA immobilized by its His tag, PCC titrated in solution
# [3] = molecular target: PSMA-Myc-Flag (Origene) (human) (UniProt Q04609); test: ELISA, PSMA immobilized by its Myc-Flag tag, PCC titrated in solution
# PSMA-Myc-Flag (Origene) (human), sequence (Q04609 whole entry): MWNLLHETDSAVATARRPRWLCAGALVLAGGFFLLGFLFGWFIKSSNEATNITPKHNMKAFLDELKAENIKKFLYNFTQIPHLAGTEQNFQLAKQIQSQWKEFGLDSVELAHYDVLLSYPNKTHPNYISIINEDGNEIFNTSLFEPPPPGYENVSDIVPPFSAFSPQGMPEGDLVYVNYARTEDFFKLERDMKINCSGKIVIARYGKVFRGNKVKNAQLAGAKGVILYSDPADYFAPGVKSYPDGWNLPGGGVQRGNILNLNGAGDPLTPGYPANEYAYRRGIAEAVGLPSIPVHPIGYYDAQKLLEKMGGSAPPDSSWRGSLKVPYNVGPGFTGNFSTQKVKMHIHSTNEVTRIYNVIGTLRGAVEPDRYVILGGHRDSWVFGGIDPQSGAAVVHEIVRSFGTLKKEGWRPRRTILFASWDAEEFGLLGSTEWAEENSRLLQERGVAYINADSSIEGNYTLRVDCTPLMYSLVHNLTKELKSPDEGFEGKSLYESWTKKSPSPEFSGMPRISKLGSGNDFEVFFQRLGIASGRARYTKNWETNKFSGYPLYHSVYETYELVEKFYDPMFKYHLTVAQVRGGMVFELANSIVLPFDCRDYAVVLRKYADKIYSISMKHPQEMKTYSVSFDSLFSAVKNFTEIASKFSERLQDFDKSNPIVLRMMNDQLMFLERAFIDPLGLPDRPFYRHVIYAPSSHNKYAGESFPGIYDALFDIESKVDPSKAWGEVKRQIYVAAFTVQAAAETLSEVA
# recombinant PSMA protein (human), sequence (Q04609 44-750 limits assumed): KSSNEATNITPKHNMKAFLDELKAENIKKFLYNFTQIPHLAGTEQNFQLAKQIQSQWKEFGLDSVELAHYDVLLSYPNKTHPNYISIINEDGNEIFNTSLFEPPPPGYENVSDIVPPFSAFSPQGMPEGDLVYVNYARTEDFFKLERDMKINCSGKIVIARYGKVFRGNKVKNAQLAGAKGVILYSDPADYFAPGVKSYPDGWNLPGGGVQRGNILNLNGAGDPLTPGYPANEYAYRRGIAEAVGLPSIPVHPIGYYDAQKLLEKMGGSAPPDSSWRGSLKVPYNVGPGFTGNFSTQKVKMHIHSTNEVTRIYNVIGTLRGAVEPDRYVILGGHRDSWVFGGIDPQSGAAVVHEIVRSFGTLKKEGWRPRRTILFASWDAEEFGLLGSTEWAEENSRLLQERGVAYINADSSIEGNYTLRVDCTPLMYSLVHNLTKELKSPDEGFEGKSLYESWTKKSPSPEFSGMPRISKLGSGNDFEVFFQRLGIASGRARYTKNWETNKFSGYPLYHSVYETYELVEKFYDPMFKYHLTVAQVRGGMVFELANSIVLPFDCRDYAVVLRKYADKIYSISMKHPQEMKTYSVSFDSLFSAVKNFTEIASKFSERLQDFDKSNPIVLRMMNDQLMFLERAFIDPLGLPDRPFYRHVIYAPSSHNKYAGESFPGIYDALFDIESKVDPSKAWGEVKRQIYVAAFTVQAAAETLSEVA
# His-PSMA (Sino Biological) (human), sequence (Q04609 44-750 limits assumed): as above
Substance,EC50 [1] [nM],EC50 [2] [nM],EC50 [3] [nM]
hnwlG (SEQ ID NO:19) (peptide),5580,–,–
hreww (SEQ ID NO:10) (peptide),–,872,662
lfkhh (SEQ ID NO:16) (peptide),8.6,–,–
